The target in test [1] is T1, human calcitonin receptor (human, UniProt P30988 25-474).
T1 sequence (looked up): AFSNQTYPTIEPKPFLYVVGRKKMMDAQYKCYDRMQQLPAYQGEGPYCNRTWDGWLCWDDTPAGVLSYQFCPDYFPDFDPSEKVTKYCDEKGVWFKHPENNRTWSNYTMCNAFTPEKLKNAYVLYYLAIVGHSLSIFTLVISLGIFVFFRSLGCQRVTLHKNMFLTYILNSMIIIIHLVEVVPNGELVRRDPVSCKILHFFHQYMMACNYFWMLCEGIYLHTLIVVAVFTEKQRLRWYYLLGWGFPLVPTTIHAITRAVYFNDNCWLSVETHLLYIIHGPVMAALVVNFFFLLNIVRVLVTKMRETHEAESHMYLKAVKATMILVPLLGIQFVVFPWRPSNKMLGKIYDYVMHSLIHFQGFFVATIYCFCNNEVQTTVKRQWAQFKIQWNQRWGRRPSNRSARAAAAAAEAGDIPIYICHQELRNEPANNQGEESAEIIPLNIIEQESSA
In words: cell-based or functional assay.

Test [2] has as its target T2, human amylin receptor (amylin 3(a) receptor: human calcitonin receptor with RAMP-3) (human, UniProt P30988 25-474; O60896 24-148, limits assumed).
T2 construct: whole, on cells; Whole cells in the luciferase assay (Assay II a); also called hAmylin-R; hAmylinR
T2 sequence (looked up) 1: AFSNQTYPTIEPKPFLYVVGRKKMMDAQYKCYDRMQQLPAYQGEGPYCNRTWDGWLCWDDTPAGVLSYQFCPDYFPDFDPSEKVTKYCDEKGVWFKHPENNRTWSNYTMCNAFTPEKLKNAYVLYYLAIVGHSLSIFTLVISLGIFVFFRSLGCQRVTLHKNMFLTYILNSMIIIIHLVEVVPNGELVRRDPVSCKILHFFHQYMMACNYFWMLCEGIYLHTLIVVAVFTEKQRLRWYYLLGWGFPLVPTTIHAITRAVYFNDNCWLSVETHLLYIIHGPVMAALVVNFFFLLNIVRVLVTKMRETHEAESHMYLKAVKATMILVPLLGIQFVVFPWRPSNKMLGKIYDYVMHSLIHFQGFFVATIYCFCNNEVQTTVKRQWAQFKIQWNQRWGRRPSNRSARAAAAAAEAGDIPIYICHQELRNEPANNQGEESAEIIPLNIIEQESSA
T2 sequence (looked up) 2: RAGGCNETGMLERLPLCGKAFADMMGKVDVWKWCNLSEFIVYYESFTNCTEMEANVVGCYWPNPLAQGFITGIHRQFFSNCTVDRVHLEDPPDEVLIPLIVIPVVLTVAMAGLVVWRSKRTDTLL
Nature of the test: SPA competition binding on membranes of BHK cells with human calcitonin receptor + RAMP-3; displacement of 125I-rat amylin (Assay V). On the procedure:
The binding assay was performed using scintillation proximity assay (SPA) beads (RPNQ0001) from PerkinElmer and cell membranes from the Amylin 3(a)/CRE-luc cells (as described in Assay (II)) were used. Membranes were prepared in the following way; the cells were rinsed with PBS and incubated with Versene for approximately 5 min before harvesting. The cells were flushed with PBS and the cell-suspension was centrifuged for 5 min at 1000 rpm. Cells were homogenized (ultrathurrax) in a buffer containing 20 mM Na-HEPES and 10 mM EDTA (pH 7.4) and centrifuged at 20.000 rpm for 15 min. The resulting pellet was resuspended, homogenized and centrifuged (20.000 rpm, 15 min) in a buffer containing 20 mM Na-HEPES and 0.1 mM EDTA (pH 7.4, buffer 2). The resulting pellet was resuspended in buffer 2 and protein concentration was measured (BCA protein Assay, Pierce). The homogenate was kept cold during the whole procedure. The membranes were kept at −80° C. until use. The assay was performed in a 384 well Optiplate (PerkinElmer) in a total volume of 40 ul. Membranes were mixed with SPA beads. Final concentration of membranes 35 ng/μL final and SPA beads was 0.05 mg/well. Test-compounds were dissolved in DMSO and further diluted in assay buffer (50 mM Hepes, pH 7.4, 1 mM CaCl2, 5 mM MgCl₂, 0.1% OA and 0.02% Tween20). […] The final mixture was incubated with shaking at 400 rpm for 120 min at 25° C. prior to centrifugation (1500 rpm, 10 min). Samples were analyzed on TopCounter™ (Packard). The IC₅₀ was calculated using (one site binding competition analysis) GraphPad Prism5 as a measure of receptor affinity.

The record followed here is patent publication US20140087995A1 (published 2014).

Numbered stars: 1 amine (or outer) side, 2 acyl side, 3 side chain; on linkers, the order of the positions; unused ones are H or OH. Bridge positions count the residues as written; N and C are the ends. * marks the point of attachment. C20 diacid = O=C(O)CCCCCCCCCCCCCCCCCCC(=O)*; γGlu = O=C(O)[C@H](CCC(=O)[*:2])N[*:1]; AEEA = NCCOCCOCC(=O)O

B1: N^α1-[2-[2-[2-[[2-[2-[2-[[(4S)-4-carboxy-4-(19-carboxynonadecanoylamino)butanoyl]amino]ethoxy]ethoxy]acetyl]amino]ethoxy]ethoxy]acetyl]-[Glu14,Arg17,Pro21,Pro27 … (peptide)
peptide: {C20 diacid-γGlu-AEEA-AEEA}-KCNTATCATQRLAEFLRHSSPNFGAIPSSTNVGSNTP-NH2
modifications: disulfide 2-7
SMILES: CC[C@H](C)[C@H](NC(=O)[C@H](C)NC(=O)CNC(=O)[C@H](Cc1ccccc1)NC(=O)[C@H](CC(N)=O)NC(=O)[C@@H]1CCCN1C(=O)[C@H](CO)NC(=O)[C@H](CO)NC(=O)[C@H](Cc1c[nH]cn1)NC(=O)[C@H](CCCNC(=N)N)NC(=O)[C@H](CC(C)C)NC(=O)[C@H](Cc1ccccc1)NC(=O)[C@H](CCC(=O)O)NC(=O)[C@H](C)NC(=O)[C@H](CC(C)C)NC(=O)[C@H](CCCNC(=N)N)NC(=O)[C@H](CCC(N)=O)NC(=O)[C@@H](NC(=O)[C@H](C)NC(=O)[C@@H]1CSSC[C@H](NC(=O)[C@H](CCCCN)NC(=O)COCCOCCNC(=O)COCCOCCNC(=O)CC[C@H](NC(=O)CCCCCCCCCCCCCCCCCCC(=O)O)C(=O)O)C(=O)N[C@@H](CC(N)=O)C(=O)N[C@@H]([C@@H](C)O)C(=O)N[C@@H](C)C(=O)N[C@@H]([C@@H](C)O)C(=O)N1)[C@@H](C)O)C(=O)N1CCC[C@H]1C(=O)N[C@@H](CO)C(=O)N[C@@H](CO)C(=O)N[C@H](C(=O)N[C@@H](CC(N)=O)C(=O)N[C@H](C(=O)NCC(=O)N[C@@H](CO)C(=O)N[C@@H](CC(N)=O)C(=O)N[C@H](C(=O)N1CCC[C@H]1C(N)=O)[C@@H](C)O)C(C)C)[C@@H](C)O
notes: also called compound 20
As a reminder, the IC50 is the concentration that gives 50% inhibition. Take B1: in test [1], the “Ratio hCT/hAmylin funct.” value was found to be 3.6 ratio. Further, the IC50 in test [2] stood at 0.217 nM.

B2: N^α1-[(4S)-4-carboxy-4-(19-carboxynonadecanoylamino)butanoyl]-[Glu14,Arg17,Pro21,Pro27,His35]-h-amylin (peptide)
peptide: {C20 diacid-γGlu}-KCNTATCATQRLAEFLRHSSPNFGAIPSSTNVGSHTY-NH2
modifications: disulfide 2-7
SMILES: CC[C@H](C)[C@H](NC(=O)[C@H](C)NC(=O)CNC(=O)[C@H](Cc1ccccc1)NC(=O)[C@H](CC(N)=O)NC(=O)[C@@H]1CCCN1C(=O)[C@H](CO)NC(=O)[C@H](CO)NC(=O)[C@H](Cc1c[nH]cn1)NC(=O)[C@H](CCCNC(=N)N)NC(=O)[C@H](CC(C)C)NC(=O)[C@H](Cc1ccccc1)NC(=O)[C@H](CCC(=O)O)NC(=O)[C@H](C)NC(=O)[C@H](CC(C)C)NC(=O)[C@H](CCCNC(=N)N)NC(=O)[C@H](CCC(N)=O)NC(=O)[C@@H](NC(=O)[C@H](C)NC(=O)[C@@H]1CSSC[C@H](NC(=O)[C@H](CCCCN)NC(=O)CC[C@H](NC(=O)CCCCCCCCCCCCCCCCCCC(=O)O)C(=O)O)C(=O)N[C@@H](CC(N)=O)C(=O)N[C@@H]([C@@H](C)O)C(=O)N[C@@H](C)C(=O)N[C@@H]([C@@H](C)O)C(=O)N1)[C@@H](C)O)C(=O)N1CCC[C@H]1C(=O)N[C@@H](CO)C(=O)N[C@@H](CO)C(=O)N[C@H](C(=O)N[C@@H](CC(N)=O)C(=O)N[C@H](C(=O)NCC(=O)N[C@@H](CO)C(=O)N[C@@H](Cc1c[nH]cn1)C(=O)N[C@H](C(=O)N[C@@H](Cc1ccc(O)cc1)C(N)=O)[C@@H](C)O)C(C)C)[C@@H](C)O
notes: also called compound 18
Take B2: in test [1], the “Ratio hCT/hAmylin funct.” value was determined as 4.8 ratio. The half-inhibitory concentration (IC50) in test [2] came out at 0.554 nM.

B3: N^α1-[(4S)-4-carboxy-4-(19-carboxynonadecanoylamino)butanoyl]-[Glu14,Arg17,Pro21,Pro27,Asp35,Pro37]-h-amylin (peptide)
peptide: {C20 diacid-γGlu}-KCNTATCATQRLAEFLRHSSPNFGAIPSSTNVGSDTP-NH2
modifications: disulfide 2-7
SMILES: CC[C@H](C)[C@H](NC(=O)[C@H](C)NC(=O)CNC(=O)[C@H](Cc1ccccc1)NC(=O)[C@H](CC(N)=O)NC(=O)[C@@H]1CCCN1C(=O)[C@H](CO)NC(=O)[C@H](CO)NC(=O)[C@H](Cc1c[nH]cn1)NC(=O)[C@H](CCCNC(=N)N)NC(=O)[C@H](CC(C)C)NC(=O)[C@H](Cc1ccccc1)NC(=O)[C@H](CCC(=O)O)NC(=O)[C@H](C)NC(=O)[C@H](CC(C)C)NC(=O)[C@H](CCCNC(=N)N)NC(=O)[C@H](CCC(N)=O)NC(=O)[C@@H](NC(=O)[C@H](C)NC(=O)[C@@H]1CSSC[C@H](NC(=O)[C@H](CCCCN)NC(=O)CC[C@H](NC(=O)CCCCCCCCCCCCCCCCCCC(=O)O)C(=O)O)C(=O)N[C@@H](CC(N)=O)C(=O)N[C@@H]([C@@H](C)O)C(=O)N[C@@H](C)C(=O)N[C@@H]([C@@H](C)O)C(=O)N1)[C@@H](C)O)C(=O)N1CCC[C@H]1C(=O)N[C@@H](CO)C(=O)N[C@@H](CO)C(=O)N[C@H](C(=O)N[C@@H](CC(N)=O)C(=O)N[C@H](C(=O)NCC(=O)N[C@@H](CO)C(=O)N[C@@H](CC(=O)O)C(=O)N[C@H](C(=O)N1CCC[C@H]1C(N)=O)[C@@H](C)O)C(C)C)[C@@H](C)O
notes: also called compound 11
Take B3: the “Ratio hCT/hAmylin funct.” value in test [1] was 0.9 ratio. In addition, in test [2], the IC50 was 0.105 nM.

B4: N^α1-[(4S)-4-carboxy-4-(19-carboxynonadecanoylamino)butanoyl]-[Asp14,Arg17,Pro21,Pro27,Pro37]-h-amylin (peptide)
peptide: {C20 diacid-γGlu}-KCNTATCATQRLADFLRHSSPNFGAIPSSTNVGSNTP-NH2
modifications: disulfide 2-7
SMILES: CC[C@H](C)[C@H](NC(=O)[C@H](C)NC(=O)CNC(=O)[C@H](Cc1ccccc1)NC(=O)[C@H](CC(N)=O)NC(=O)[C@@H]1CCCN1C(=O)[C@H](CO)NC(=O)[C@H](CO)NC(=O)[C@H](Cc1c[nH]cn1)NC(=O)[C@H](CCCNC(=N)N)NC(=O)[C@H](CC(C)C)NC(=O)[C@H](Cc1ccccc1)NC(=O)[C@H](CC(=O)O)NC(=O)[C@H](C)NC(=O)[C@H](CC(C)C)NC(=O)[C@H](CCCNC(=N)N)NC(=O)[C@H](CCC(N)=O)NC(=O)[C@@H](NC(=O)[C@H](C)NC(=O)[C@@H]1CSSC[C@H](NC(=O)[C@H](CCCCN)NC(=O)CC[C@H](NC(=O)CCCCCCCCCCCCCCCCCCC(=O)O)C(=O)O)C(=O)N[C@@H](CC(N)=O)C(=O)N[C@@H]([C@@H](C)O)C(=O)N[C@@H](C)C(=O)N[C@@H]([C@@H](C)O)C(=O)N1)[C@@H](C)O)C(=O)N1CCC[C@H]1C(=O)N[C@@H](CO)C(=O)N[C@@H](CO)C(=O)N[C@H](C(=O)N[C@@H](CC(N)=O)C(=O)N[C@H](C(=O)NCC(=O)N[C@@H](CO)C(=O)N[C@@H](CC(N)=O)C(=O)N[C@H](C(=O)N1CCC[C@H]1C(N)=O)[C@@H](C)O)C(C)C)[C@@H](C)O
notes: also called compound 10
Take B4: the “Ratio hCT/hAmylin funct.” value in test [1] worked out at 1 ratio. Besides, the IC50 in test [2] was 0.082 nM.
The corresponding values for {C20 diacid-γGlu}-KCNTATCATQRLAEFLRHSSPNFGAIPSSTNVGSNTP-NH2 (disulfide 2-7, also called compound 8) are 1.1 ratio and 0.072 nM.

B5: N^α1-[(4S)-4-carboxy-4-(19-carboxynonadecanoylamino)butanoyl]-[Glu14,Arg17,Pro21,Pro27,Pro29]-h-amylin (peptide)
peptide: {C20 diacid-γGlu}-KCNTATCATQRLAEFLRHSSPNFGAIPSPTNVGSNTY-NH2
modifications: disulfide 2-7
SMILES: CC[C@H](C)[C@H](NC(=O)[C@H](C)NC(=O)CNC(=O)[C@H](Cc1ccccc1)NC(=O)[C@H](CC(N)=O)NC(=O)[C@@H]1CCCN1C(=O)[C@H](CO)NC(=O)[C@H](CO)NC(=O)[C@H](Cc1c[nH]cn1)NC(=O)[C@H](CCCNC(=N)N)NC(=O)[C@H](CC(C)C)NC(=O)[C@H](Cc1ccccc1)NC(=O)[C@H](CCC(=O)O)NC(=O)[C@H](C)NC(=O)[C@H](CC(C)C)NC(=O)[C@H](CCCNC(=N)N)NC(=O)[C@H](CCC(N)=O)NC(=O)[C@@H](NC(=O)[C@H](C)NC(=O)[C@@H]1CSSC[C@H](NC(=O)[C@H](CCCCN)NC(=O)CC[C@H](NC(=O)CCCCCCCCCCCCCCCCCCC(=O)O)C(=O)O)C(=O)N[C@@H](CC(N)=O)C(=O)N[C@@H]([C@@H](C)O)C(=O)N[C@@H](C)C(=O)N[C@@H]([C@@H](C)O)C(=O)N1)[C@@H](C)O)C(=O)N1CCC[C@H]1C(=O)N[C@@H](CO)C(=O)N1CCC[C@H]1C(=O)N[C@H](C(=O)N[C@@H](CC(N)=O)C(=O)N[C@H](C(=O)NCC(=O)N[C@@H](CO)C(=O)N[C@@H](CC(N)=O)C(=O)N[C@H](C(=O)N[C@@H](Cc1ccc(O)cc1)C(N)=O)[C@@H](C)O)C(C)C)[C@@H](C)O
notes: also called compound 37
On to B5, for which the “Ratio hCT/hAmylin funct.” value in test [1] was 4 ratio. For the same molecule, the IC50 in test [2] was 0.97 nM.
